In US20080227700A1, “Compositions and Methods for Treatment of Protein Misfolding and Protein Aggregation Diseases” (priority 2004, published 2008):

What was measured:
βL crystallin = assay: Chaperone assay, thermal aggregation of βL crystallin; type: biochemical; conditions: light scattering at λ=340 nm; 1:10 target protein:peptide; comparison among five peptides
Method: Chaperone Assays. Chaperone assays of the five peptides were performed using previously established methods with minor modifications. Muchowski et al., J Mol Biol 289: 397-411, 1999. A 1:1 monomeric molar ratio of chaperone: target protein was determined to be the optimum ratio and all subsequent chaperone assays of the β3 mutants were performed in triplicate and at a 1:1 monomeric molar ratio of chaperone: target protein in a 96-well ELISA micro-titer plate. […] of the chaperone and βL crystallin were mixed in a total volume of 200 μL buffer (5 mM PBS, pH 7.0). Light scattering at λ=340 nm was measured using a Multiskan MCC/340 plate reader before heating (time=0). After the first reading, the plate was heated at 50° C. and readings were taken at fifteen minute intervals for one hour.
The ability of the peptides to suppress the thermal aggregation of βL crystallin was measured spectrophotometrically as light scattering at λ=340 nm from solutions containing 1:10 monomeric molar ratio of target protein: peptide.

ADH = target: T1, ADH (Equus caballus, UniProt P00327); assay: Chaperone assay, thermal aggregation of ADH; type: biochemical; conditions: 50:1 molar ratio of peptide:ADH; 50° C., sixty minutes; light scattering λ=340 nm; no peptide = 0% protection
T1 construct: purchased
T1 sequence (P00327 whole entry): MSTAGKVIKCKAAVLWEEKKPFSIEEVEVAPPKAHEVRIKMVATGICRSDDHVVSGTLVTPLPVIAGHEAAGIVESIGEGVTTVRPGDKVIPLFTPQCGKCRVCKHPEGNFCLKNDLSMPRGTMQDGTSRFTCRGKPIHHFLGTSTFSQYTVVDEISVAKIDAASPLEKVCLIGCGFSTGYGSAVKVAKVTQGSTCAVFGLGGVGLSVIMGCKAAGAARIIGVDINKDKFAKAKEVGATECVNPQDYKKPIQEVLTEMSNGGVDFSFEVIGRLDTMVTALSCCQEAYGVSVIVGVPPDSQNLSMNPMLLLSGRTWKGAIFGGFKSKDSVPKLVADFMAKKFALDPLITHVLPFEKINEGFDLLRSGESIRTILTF
Method: (§1) The chaperone activity of the peptides was measured as their ability to protect against the thermal aggregation of three chaperone target proteins βH crystallin, ADH and CS in chaperone assays performed at 50° C. (FIG. 19). A non-interactive αB crystallin sequence 111HGKHEERQDE120 was used as the negative control in the chaperone assays (FIG. 19). Based on near and far UVCD, the three target proteins unfolded in the order: CS>>>ADH>>βH crystallin when they were heated at 50° C. for sixty minutes (FIGS. 15 and 16). The thermal aggregation of βH crystallin, ADH and CS was measured as light scattering at λ=340 nm in the presence and absence of each peptide. The chaperone activity of each peptide was calculated as percent protection in which the aggregation of each target protein in the absence of any peptides was set at 0% protection (FIG. 19). The interactive peptides 73DRFSVNLDVKHFS85 and 131LTITSSLSDGV141 were effective inhibitors of aggregation of all three chaperone target proteins.
(§2) A (top left): thermal aggregation of chaperone target proteins βH crystallin, ADH and CS in the absence of peptides was measured as light scattering at λ=340 nm. Each target protein was heated at 50° C. for sixty minutes in the absence or presence of one of the peptides. […] The chaperone activity of each peptide was calculated as percent protection in which the aggregation of each target protein in the absence of any peptides was set at 0% protection. The ability of the 73DRFSVNLDVKHFS85, 131LTITSSLSDGV141 and 111HGKHEERQDE120 to protect against the thermal aggregation of βH crystallin (B: top right), ADH (C: bottom left) and CS (D: bottom right) were tested in vitro (vertical bars). […] A 10:1 molar ratio of peptide:target protein was sufficient in conferring significant protection against the aggregation of CS by 73DRFSVNLDVKHFS85 and 131LTITSSLSDGV141.

Aβ = Aβ (Homo sapiens, UniProt P05067); assay: Aβ ThioflavinT fluorescence (fibrillization of Aβ); type: biochemical; conditions: 1:10 Aβ:peptide; for effect on the fibrillization of Aβ: ThioflavinT fluorescence after 72 hrs, comparison among αB crystallin and five peptides; for Δfluorescence (Aβ): ThioflavinT, 50° C. for 72 hours, no chaperone 1,324,974,048
Method: Aβ Thioflaviin T fluorescence. Aβ fibrils were grown in the presence and absence of αB crystallin and peptides in conditions similar to that previously described for the presence of αB crystallin. Bakthisaran et al., Biochem J, 2005. Peptides were dissolved to 9.1 mM in trifluorethanol (TFE) and diluted to 0.91 mM stock solutions in 50 mM PBS, 100 mM NaCl, pH 7.4. 3.5 mg of ThioflavinT was dissolved in 100 μl of 50 mM Glycine pH 8.5. A stock solution of 1 mg/ml (0.22 mM) Aβ was prepared. 20 μl Aβ, 50 μl chaperone, 2 μl ThioflavinT was mixed with 28 μl 50 mM PBS, 100 mM NaCl, pH 7.4. Fluorescence was read using a Beckman Coultier DTX 880 multimode detector. Samples were heated at 50° C. for 72 hours and fluorescence was read again.
The fibrillization of Aβ was measured as fluorescence of the fluorescent dye ThioflavinT from solutions containing 1:10 monomeric molar ratio of Aβ:peptide. In the absence of Aβfibrils, ThioflavinT had little or no fluorescence. The fluorescence of the ThioflavinT bound to Aβ fibrils in the absence of any other molecule after 72 hrs was set to 100%. […] Fibril formation=ΔfluorescenceAβ (with chaperone)*100/ΔfluorescenceAβ (without chaperone).

amyloid beta (1-42) = amyloid beta (1-42) (Homo sapiens, UniProt P05067); assay: Cu+++-induced aggregation of amyloid-beta (1-42) in vitro, light scattering; type: biochemical; conditions: 100 mM Cu+++, 360 nm; for preventing the Cu+++-induced aggregation of amyloid-beta: 1:1 and 1:10 molar ratio of amyloid-beta to peptide; for preventing the Cu+++ induced aggregation of amyloid-beta: 10:1 molar ratio of amyloid-beta to peptide
Method: In vitro assays were also performed to measure the ability of the human αB crystallin derived peptides identified in Example 1 to inhibit aggregation of Cu^+++-induced amyloid beta (1-42) aggregation. Aggregation assays were performed using routine procedures, in the presence or absence of a synthesized peptide identified in Example 1, in the presence of 100 mM Cu^+++. Aggregation was measured spectrophotometrically as light scattering at a wavelength of 360 nm. Aggregated amyloid-beta was assigned a value of 100% aggregation and used to normalize aggregation in the presence of synthesize peptides.
Aggregation was measured spectrophotometrically as light scattering at a wavelength of 360 nm. Aggregated amyloid-beta was assigned a value of 100% aggregation and used to normalize aggregation in the presence of synthesize peptides. Aggregation was plotted as a bar graph with the standard error for duplicate experiments. The 1st vertical bar is the scattering measured for aggregated amyloid-beta (100% aggregation) in the presence of 100 mM Cu^+++. The 2nd-4th vertical bars is the scattering from amyloid-beta in the presence of wild type recombinant human αB crystallin. The 5th-13th vertical bars are the scattering of amyloid-beta in the presence of the synthetic peptides, DRFSVNLDVKHFS or LTITSSLSDGV or HGKHEERQDE at selected concentrations. A prefix of 10× represents a 10:1 molar concentration of amyloid-beta to either wild type αB crystallin or its peptides. A prefix of 1X represents a 1:1 molar concentration of amyloid-beta to either wt αB crystallin or its peptides. A prefix of 0.1× represents a 1:10 molar concentration of amyloid-beta to either wt αB crystallin or its peptides.

βH crystallin = assay: Chaperone assay, thermal aggregation of βH crystallin; type: biochemical; conditions: 50:1 molar ratio of peptide:βH crystallin; 50° C., sixty minutes; light scattering λ=340 nm; no peptide = 0% protection
Method: as §1, §2

[1] = as provided by manufacturer (Mimotopes); cited from earlier work
CS = target: T2, CS (Sus scrofa, UniProt P00889); assay: Chaperone assay, thermal aggregation of CS; type: biochemical; conditions: 10:1 molar ratio of peptide:CS; 50° C., sixty minutes; light scattering λ=340 nm; no peptide = 0% protection
T2 construct: purchased
T2 sequence (P00889 28-464): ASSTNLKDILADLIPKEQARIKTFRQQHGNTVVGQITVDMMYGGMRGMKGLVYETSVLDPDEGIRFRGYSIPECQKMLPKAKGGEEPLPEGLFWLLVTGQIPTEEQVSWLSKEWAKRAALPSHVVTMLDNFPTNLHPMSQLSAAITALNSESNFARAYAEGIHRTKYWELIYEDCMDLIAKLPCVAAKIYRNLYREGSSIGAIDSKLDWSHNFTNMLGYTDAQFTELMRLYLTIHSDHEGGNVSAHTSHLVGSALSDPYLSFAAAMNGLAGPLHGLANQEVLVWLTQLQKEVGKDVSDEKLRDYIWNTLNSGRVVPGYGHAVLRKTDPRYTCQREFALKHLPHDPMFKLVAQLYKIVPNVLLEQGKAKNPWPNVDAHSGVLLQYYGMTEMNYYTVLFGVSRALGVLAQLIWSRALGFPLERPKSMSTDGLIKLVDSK
Method: as §1
A (top left): thermal aggregation of chaperone target proteins βH crystallin, ADH and CS in the absence of peptides was measured as light scattering at λ=340 nm. […] The chaperone activity of each peptide was calculated as percent protection in which the aggregation of each target protein in the absence of any peptides was set at 0% protection. […]

γD crystallin = target: T3, γD crystallin (Homo sapiens, UniProt P07320); assay: γD crystallin ThioflavinT fluorescence (fibrillization of γD crystallin); type: biochemical; conditions: 1:1 γD crystallin:peptide; for Δfluorescence (γD crystallin): ThioflavinT, 50° C. for 72 hours, no chaperone 888,803,840
T3 sequence (P07320 1-174): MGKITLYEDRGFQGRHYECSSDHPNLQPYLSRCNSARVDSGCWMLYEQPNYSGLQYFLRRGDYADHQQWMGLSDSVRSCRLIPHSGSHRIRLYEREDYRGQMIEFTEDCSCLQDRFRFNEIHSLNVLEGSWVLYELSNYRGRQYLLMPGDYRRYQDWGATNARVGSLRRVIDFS
Method: γD crystallin Thioflaviin T fluorescence. γD crystallin fibrils were formed in a similar way to that of γ crystalline. Meehan et al., J Biol Chem 279: 3413-3419, 2004. Peptides were dissolved to […] IN tfe AND DILUTED to 0.91 mM stock solutions in 10% TFE, pH 2.0.
3.5 mg of ThioflavinT was dissolved in 100 μL of 50 mM Glycine pH 8.5. A stock solution of 1 mg/ml (0.22 mM) Aβ was prepared. 20 μl Aβ, 5 μl chaperone, 2 μl ThioflavinT was mixed with 73 μL 10% TFE, pH 2.0. Fluorescence was read using a Beckman Coultier DTX 880 multimode detector. Samples were heated at 50° C. for 72 hours and fluorescence was read again.
The fibrillization of γD crystallin was measured as fluorescence of the fluorescent dye ThioflavinT from solutions containing 1:1 monomeric molar ratio of γD crystallin:peptide. In the absence of fibrils ThioflavinT had little or no fluorescence. The fluorescence of the ThioflavinT bound to γD crystallin fibrils in the absence of any other molecule after 72 hrs was set to 100%. […] Fibril formation=ΔfluorescenceγD crystallin (with chaperone)*100/ΔfluorescenceγD crystallin (without chaperone).

Substance	effect on the thermal aggregation of βL crystallin (chaperone activity) (βL crystallin)	percent protection against thermal aggregation of ADH (ADH)	effect on the fibrillization of Aβ (Aβ)	preventing the Cu+++-induced aggregation of amyloid-beta (amyloid beta (1-42))	preventing the Cu+++ induced aggregation of amyloid-beta (amyloid beta (1-42))	percent protection against thermal aggregation of βH crystallin (βH crystallin)	Hydrophobicity [1]	percent protection against thermal aggregation of CS (CS)	Δfluorescence (γD crystallin) (γD crystallin)	Δfluorescence (Aβ) (Aβ)	effect on the fibrillization of γD crystallin (γD crystallin; ThioflavinT fluorescence after 72 hrs, comparison among αB crystallin and five peptides)
DRFSVNLDVKHFS	slightly lower than the HG peptide	approximately 30%	strongest effect	equally effective	less effective	approximately 30%					
HFSPEELK [Peptide 42]							0.25				
HGKHEERQDE	strongest effect	No protection	weakest effect	equally effective	less effective	No protection		partial protection			
LTITSSLSDGV	slightly lower than the HG peptide	approximately 30%		equally effective	less effective	approximately 30%			675,352,992	352,301,312	
αB crystallin: wild type recombinant human αB crystallin, a small heat shock protein and molecular chaperone									1,079,141,056	318,471,040	weakest effect
